Assay results from the supplement of paper PMC7877785.
± gives the uncertainty stated by the source.

Test: self-splicing fitness, log relative to wild type (ln ratio); higher = more splicing; Tetrahymena group I intron in knt gene, E. coli kanamycin selection, DiMSum; sequences stand for … in CUCUCU…GGAGGGAAAAGUUAUCAGGCAUGCACCUGGUAGCUAGUCUUUAAACCAAUAGAUUGCAUCGGUUUAAAAGGCAAGACCGUCAAAUUGCGGGAAAGGGGUCAACAGCCGUUCAGUACCAAGUCUCAGGGGAAACUUUGAGAUGGCCUUGCAAAGGGUAUGGUAAUAAGCUGACGGACAUGGUCCUAACCACGCAGCCAAGUCCUAAGUCAACAGAUCUUCUGUUGAUAUGGAUGCAGUUCACAGACUAAAUGUCGGUCGGGGAAGAUGUAUUCUUCUCAUAAGAUAUAGUCGGACCUCUCCUUAAUGGGAGCUAGCGGAUGAAGUGAUGCAACACUGGAGCCGCUGGGAACUAAUUUGUAUGCGAAAGUAUAUUGAUUAGUUUUGGAGUACUCGUGGUCG
In short: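 The eight P1ex-region nucleotides of an intron in the knt kanamycin-resistance gene on pET-22b(+) were all randomised and the library put into E. coli BL21(DE3). Six replicate transformations were grown overnight at 37°C or 30°C on LB agar with or without 25 μg/mL kanamycin, together with 100 μg/mL carbenicillin, 50 μM IPTG and 0.2% rhamnose. Colonies were pooled and amplicon-sequenced on an Illumina HiSeq 2500. Fitness from DiMSum is the error-weighted combination of wild-type-normalised replicate fold changes, kanamycin over none.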

| Sequence | self-splicing fitness (ln) (30 °C) | self-splicing fitness (ln) (37 °C) |
| --- | --- | --- |
| GCCCAGCAAUAUUACGCCAC | -4.89 ± 0.38 | -2.44 ± 0.18 |
| GCCCAGCAAUAUUACGCGUG | -3.68 ± 0.13 | -2.41 ± 0.12 |
| GCCCAGCAAUAUUACGCUAU | -0.826 ± 0.082 | -0.309 ± 0.086 |
| GCCCAGCAAUAUUACGCUCA | -0.789 ± 0.08 | -0.055 ± 0.1 |
| GCCCAGCAAUAUUACGCUGA | -1.08 ± 0.13 | -0.784 ± 0.18 |
| GCCCAGCAAUAUUACGGAUU | 0.0408 ± 0.057 | -0.0391 ± 0.08 |
| GCCCAGCAAUAUUACGUAAU | -0.747 ± 0.06 | -0.32 ± 0.067 |
| GCCCAGCAAUAUUACGUCAC | -2.87 ± 0.13 | -2.64 ± 0.22 |
| GCCCAGCAAUAUUACGUGCC | -3.75 ± 0.32 | -3.18 ± 0.2 |
| GCCCAGCAAUAUUACGUGGG | -3.2 ± 0.12 | -3.07 ± 0.2 |
| GCCCAGCAAUAUUACGUUAU | -1.17 ± 0.079 | -1.29 ± 0.1 |
| GCCCAGCAAUAUUACGUUCA | -2.45 ± 0.16 | -0.504 ± 0.11 |
| GCCCAGCAAUAUUACGUUUC | -1.36 ± 0.078 | -1.37 ± 0.1 |
| GCCGAGCAAUAUUACGAAGC | -2.8 ± 0.33 | -1.8 ± 0.46 |
| GCCGAGCAAUAUUACGAUAC | – | -1.59 ± 0.35 |
| GCCGAGCAAUAUUACGAUCG | -2.36 ± 0.26 | – |
| GCCGAGCAAUAUUACGCAAU | -2.79 ± 0.2 | -1.35 ± 0.15 |
| GCCGAGCAAUAUUACGCACU | -1.64 ± 0.11 | -0.365 ± 0.13 |
| GCCGAGCAAUAUUACGCAUC | -2.54 ± 0.24 | -1.48 ± 0.28 |
| GCCGAGCAAUAUUACGCCGU | -3.28 ± 0.29 | -1.75 ± 0.19 |
| GCCGAGCAAUAUUACGCUAA | -1.86 ± 0.2 | -2.62 ± 0.23 |
| GCCGAGCAAUAUUACGCUCU | -0.992 ± 0.2 | -0.494 ± 0.21 |
| GCCGAGCAAUAUUACGCUUU | -1.61 ± 0.082 | -0.235 ± 0.093 |
| GCCGAGCAAUAUUACGUACC | -2.15 ± 0.13 | -0.678 ± 0.16 |
| GCCGAGCAAUAUUACGUAGA | -2.74 ± 0.13 | -2.07 ± 0.14 |

| Sequence | self-splicing fitness (ln) (30 °C) | self-splicing fitness (ln) (37 °C) |
| --- | --- | --- |
| GCCGAGCAAUAUUACGUAGG | -3.39 ± 0.21 | -0.729 ± 0.25 |
| GCCGAGCAAUAUUACGUGCG | -2.17 ± 0.11 | -1.28 ± 0.098 |
| GCCGAGCAAUAUUACGUUAU | -2.06 ± 0.098 | -2.43 ± 0.18 |
| GCCGAGCAAUAUUACGUUGU | -2.48 ± 0.12 | -1.54 ± 0.12 |
| GCCUAGCAAUAUUACGAAAU | -2.34 ± 0.12 | -0.297 ± 0.13 |
| GCCUAGCAAUAUUACGACCU | -1.35 ± 0.23 | -1.02 ± 0.27 |
| GCCUAGCAAUAUUACGACGA | -1.46 ± 0.14 | -0.629 ± 0.13 |
| GCCUAGCAAUAUUACGAUAU | -2.23 ± 0.11 | -0.907 ± 0.097 |
| GCCUAGCAAUAUUACGAUCU | -2.18 ± 0.079 | -0.334 ± 0.071 |
| GCCUAGCAAUAUUACGCAAC | -1.78 ± 0.14 | -1.21 ± 0.13 |
| GCCUAGCAAUAUUACGCCAA | -2.38 ± 0.32 | -3.18 ± 0.29 |
| GCCUAGCAAUAUUACGCGAU | -3.87 ± 0.24 | -1.68 ± 0.16 |
| GCCUAGCAAUAUUACGCGCA | -1.21 ± 0.12 | -0.303 ± 0.11 |
| GCCUAGCAAUAUUACGCGCU | -2.19 ± 0.13 | -0.269 ± 0.11 |
| GCCUAGCAAUAUUACGCGGC | -3.58 ± 0.35 | -2 ± 0.28 |
| GCCUAGCAAUAUUACGCGGG | -1.74 ± 0.17 | -3.1 ± 0.43 |
| GCCUAGCAAUAUUACGGAAA | -0.507 ± 0.27 | -0.985 ± 0.26 |
| GCCUAGCAAUAUUACGGAGA | -1.16 ± 0.11 | -1.06 ± 0.11 |
| GCCUAGCAAUAUUACGGCCC | -3.4 ± 0.48 | -0.535 ± 0.27 |
| GCCUAGCAAUAUUACGGGCG | -2.03 ± 0.1 | -1.02 ± 0.097 |
| GCCUAGCAAUAUUACGGGCU | -3.65 ± 0.23 | -2.07 ± 0.24 |
| GCCUAGCAAUAUUACGGGGC | – | -2.81 ± 0.47 |
| GCCUAGCAAUAUUACGGUCA | -0.989 ± 0.13 | -0.494 ± 0.12 |
| GCCUAGCAAUAUUACGUAAU | -0.648 ± 0.071 | 0.224 ± 0.087 |
| GCCUAGCAAUAUUACGUAUA | -3.04 ± 0.25 | -1.63 ± 0.15 |

| Sequence | self-splicing fitness (ln) (30 °C) | self-splicing fitness (ln) (37 °C) |
| --- | --- | --- |
| GCCUAGCAAUAUUACGUCAG | -2.36 ± 0.26 | -0.81 ± 0.34 |
| GCCUAGCAAUAUUACGUGAU | -0.0579 ± 0.072 | 0.159 ± 0.079 |
| GCCUAGCAAUAUUACGUGCA | -2.35 ± 0.12 | -0.937 ± 0.1 |
| GCCUAGCAAUAUUACGUGGA | -0.477 ± 0.068 | 0.358 ± 0.076 |
| GCCUAGCAAUAUUACGUUAG | -4.33 ± 0.18 | -2.4 ± 0.16 |
| GCCUAGCAAUAUUACGUUUG | -2.89 ± 0.21 | -0.761 ± 0.13 |
| GCCUAGCAAUAUUACGUUUU | -1.7 ± 0.097 | -0.614 ± 0.12 |
| GCGAAGCAAUAUUACGAAGC | -2.71 ± 0.39 | -2.49 ± 0.36 |
| GCGAAGCAAUAUUACGAAUC | -2.47 ± 0.11 | -1.11 ± 0.12 |
| GCGAAGCAAUAUUACGAGGC | – | -1.65 ± 0.45 |
| GCGAAGCAAUAUUACGAUGA | -1.1 ± 0.11 | 0.105 ± 0.098 |
| GCGAAGCAAUAUUACGCAGC | -3.31 ± 0.25 | -2.06 ± 0.34 |
| GCGAAGCAAUAUUACGCAUA | -1.92 ± 0.2 | -1.76 ± 0.16 |
| GCGAAGCAAUAUUACGCGGA | – | -1.26 ± 0.36 |
| GCGAAGCAAUAUUACGCUCU | -1.7 ± 0.24 | -1.49 ± 0.38 |
| GCGAAGCAAUAUUACGCUGU | -1.5 ± 0.39 | – |
| GCGAAGCAAUAUUACGGCGA | -0.0437 ± 0.14 | 0.0298 ± 0.15 |
| GCGAAGCAAUAUUACGGCGU | -2.68 ± 0.37 | -0.799 ± 0.46 |
| GCGAAGCAAUAUUACGGCUA | 0.15 ± 0.15 | -0.618 ± 0.12 |
| GCGAAGCAAUAUUACGGGAU | -3.58 ± 0.3 | -2.07 ± 0.26 |
| GCGAAGCAAUAUUACGGGCC | – | -1.37 ± 0.46 |
| GCGAAGCAAUAUUACGGGGA | -3.69 ± 0.23 | -3.12 ± 0.33 |
| GCGAAGCAAUAUUACGGUUC | -3.23 ± 0.2 | -1.24 ± 0.18 |
| GCGAAGCAAUAUUACGGUUU | -3.22 ± 0.13 | -1.62 ± 0.13 |
| GCGAAGCAAUAUUACGUACC | -1.02 ± 0.17 | 0.269 ± 0.19 |

| Sequence | self-splicing fitness (ln) (30 °C) | self-splicing fitness (ln) (37 °C) |
| --- | --- | --- |
| GCGAAGCAAUAUUACGUAGA | -3.57 ± 0.44 | -1.75 ± 0.37 |
| GCGAAGCAAUAUUACGUUAA | -1.65 ± 0.18 | -1.88 ± 0.23 |
| GCGCAGCAAUAUUACGAACA | -1.64 ± 0.12 | -1.32 ± 0.097 |
| GCGCAGCAAUAUUACGCACC | -3.7 ± 0.2 | -2.41 ± 0.25 |
| GCGCAGCAAUAUUACGCCCU | – | 0.00379 ± 0.44 |
| GCGCAGCAAUAUUACGCCGA | -0.753 ± 0.49 | -1.27 ± 0.28 |
| GCGCAGCAAUAUUACGCGAC | -1.77 ± 0.12 | -1.79 ± 0.18 |
| GCGCAGCAAUAUUACGCGGC | – | -3.69 ± 0.37 |
| GCGCAGCAAUAUUACGCGUA | -1.14 ± 0.082 | -1.39 ± 0.083 |
| GCGCAGCAAUAUUACGCUGG | -2.1 ± 0.1 | -2.13 ± 0.16 |
| GCGCAGCAAUAUUACGCUUU | -1.39 ± 0.068 | -0.38 ± 0.083 |
| GCGCAGCAAUAUUACGGAUC | -0.0635 ± 0.068 | 0.419 ± 0.083 |
| GCGCAGCAAUAUUACGGCGA | -0.0713 ± 0.075 | -0.173 ± 0.089 |
| GCGCAGCAAUAUUACGGCUC | -0.438 ± 0.12 | 0.47 ± 0.15 |
| GCGCAGCAAUAUUACGGGGA | -2.23 ± 0.14 | -0.687 ± 0.11 |
| GCGCAGCAAUAUUACGGUGG | -1.74 ± 0.059 | -0.842 ± 0.08 |
| GCGCAGCAAUAUUACGUAGC | -1.95 ± 0.11 | -0.709 ± 0.12 |
| GCGCAGCAAUAUUACGUAUG | -3.67 ± 0.23 | -1.8 ± 0.21 |
| GCGCAGCAAUAUUACGUCAA | -2.46 ± 0.14 | -0.0917 ± 0.1 |
| GCGCAGCAAUAUUACGUGGC | -1.81 ± 0.29 | -2.36 ± 0.29 |
| GCGCAGCAAUAUUACGUUGG | -1.81 ± 0.06 | -1.76 ± 0.097 |
| GCGCAGCAAUAUUACGUUUC | -1.35 ± 0.057 | -0.727 ± 0.074 |
| GCGGAGCAAUAUUACGACGA | -0.227 ± 0.16 | -0.189 ± 0.14 |
